Consider three molecules from patent US20140193420A1 (UNIVERSITY OF TOKYO, published 2014).

Test [1] deals with T1, GST-ITM2A-L (GST fusion of the ITM2A extracellular region Tyr75-Glu263, C-terminally His-tagged) (human).
T1 construct: Expressed in E. coli, solubilized and purified in 8 M urea buffer, coated on the ELISA plate
As to the kind of experiment: ELISA, coated GST-ITM2A-L. On the procedure: (§1) Each anti-ITM2A monoclonal antibody prepared in Example 2 was evaluated for its binding to GST-ITM2A-L and GST-ITM2A-S by ELISA. First, 100 μL each of GST-ITM2A-L and GST-ITM2A-S solutions having a concentration of 3 μg/mL was added to each well of a 96-well plate for ELISA (Nunc-Immuno Plate, Thermo Fisher Scientific K.K.) to coat the well with GST-ITM2A-L or GST-ITM2A-S. The coated well was blocked with a buffer containing 1% bovine serum albumin. Then, 100 μL each of solutions of the antibodies BE5-1, BE6-1, BE7-1-1, and BE13-1 diluted with the same buffer as above was added to each well. The plate was incubated at room temperature for 1 hour. The positive control used was an anti-His antibody (mouse IgG1, Santa Cruz Biotechnology, Inc.). The negative control used was mouse IgG1 (BD Pharmingen). Each antibody was diluted into 8 dilutions at a common ratio of 3.16 from a concentration of 1 μg/mL. After reaction with a secondary antibody (alkaline phosphatase-goat anti-mouse IgG (Gamma), Invitrogen Corp.), a substrate (phosphatase substrate, Sigma-Aldrich Corp.) was added to each well. Color developed by the reaction solution in each well was determined by the measurement of absorbance at 405 nm to 655 nm.
In general terms: An ELISA detects its analyte on a solid surface through an enzyme-linked reagent.

For test [2], the target named is T2, C-terminally HA-tagged mouse ITM2A expressed on CHO cells (mITM2A_CHO) (mouse, UniProt Q61500 1-263).
T2 construct: also called mITM2A-HA; mouse ITM2A-expressing CHO cells
As to the kind of experiment: flow cytometry on mITM2A_CHO cells. (In flow cytometry, cells or beads pass a laser one at a time.)

Test [3] deals with T3, C-terminally HA-tagged ITM2A expressed on CHO cells (ITM2A_CHO) (human, UniProt O43736 1-263).
T3 construct: Type II membrane protein on DG44 CHO cells; also called ITM2A-HA; ITM2A-expressing CHO cells
As to the kind of experiment: flow cytometry on ITM2A_CHO cells. On the procedure:
(§2) Each anti-ITM2A monoclonal antibody prepared in Example 2 was assayed for its binding to ITM2A-furin by flow cytometry (FACS). The cells used were ITM2A-furin_CHO prepared in the paragraph (4-1), ITM2A_CHO prepared in the paragraph (2-4), and host cells CHO. These cells were separately suspended in PBS supplemented with 0.2% bovine serum albumin and 0.1% NaN3 (FACS buffer). To each cell suspension, the antibody BE5-1, BE6-1, BE7-1-1, or BE13-1, mouse IgG1, or an anti-HA antibody (clone HA-7, mouse IgG1, Sigma-Aldrich Corp.) was added, and the resulting cell suspension was incubated for 1 hour on ice. Each antibody was diluted into 6 dilutions at a common ratio of 5 from a concentration of 10 μg/mL. After washing of the cells with a FACS buffer, an FITC-labeled anti-mouse IgG antibody (Goat F(ab′)2 Fragment Anti-mouse IgG (Fcγ)-FITC, Beckman Coulter, Inc.) was added thereto as a secondary antibody. The resulting cell suspension was incubated for 1 hour on ice. The cells were washed with a FACS buffer, then suspended in a FACS buffer supplemented with 10 μg/mL propidium iodide (PI, Sigma-Aldrich Corp.), and subjected to assay using a flow cytometer. The assay data was analyzed using CELLQuest software (Becton, Dickinson and Company) to evaluate a PI-negative live cell population.

The target in test [4] is T3, C-terminally HA-tagged ITM2A expressed …. In words: flow cytometry screening of hybridoma supernatants on ITM2A_CHO against parent CHO cells.
For test [5], the target named is T4, GST-ITM2A-S (GST fusion of ITM2A Tyr75-Lys182, C-terminally His-tagged) (human).
T4 construct: Expressed in E. coli, solubilized and purified in 8 M urea buffer, coated on the ELISA plate
As to the kind of experiment: ELISA, coated GST-ITM2A-S. On the procedure:
as §1

Test [6] addresses T5, ITM2A-furin (Met1 to Leu227 of ITM2A with an HA tag added downstream) expressed on CHO cells (ITM2A-furin_CHO) (human, UniProt O43736 1-227).
T5 construct: C-terminally truncated ITM2A on DG44 CHO cells; also called ITM2A-furin-HA; ITM2A-furin-expressing CHO cells
As to the kind of experiment: flow cytometry on ITM2A-furin_CHO cells. On the procedure: as §2

Test [7] concerns the target T6, human ITM2A protein (endogenous, on human cancer cell lines) (human, UniProt O43736 1-263).
T6 construct: also called NP-004858.1
As to the kind of experiment: flow cytometry on human cancer cell lines, BE6-1 at 10 µg/mL, mouse IgG1 as negative control. The protocol:
as §2
The expression of ITM2A was assayed in human cancer cell lines by FACS. […]

T1 sequence (chain, as listed by the source limits assumed): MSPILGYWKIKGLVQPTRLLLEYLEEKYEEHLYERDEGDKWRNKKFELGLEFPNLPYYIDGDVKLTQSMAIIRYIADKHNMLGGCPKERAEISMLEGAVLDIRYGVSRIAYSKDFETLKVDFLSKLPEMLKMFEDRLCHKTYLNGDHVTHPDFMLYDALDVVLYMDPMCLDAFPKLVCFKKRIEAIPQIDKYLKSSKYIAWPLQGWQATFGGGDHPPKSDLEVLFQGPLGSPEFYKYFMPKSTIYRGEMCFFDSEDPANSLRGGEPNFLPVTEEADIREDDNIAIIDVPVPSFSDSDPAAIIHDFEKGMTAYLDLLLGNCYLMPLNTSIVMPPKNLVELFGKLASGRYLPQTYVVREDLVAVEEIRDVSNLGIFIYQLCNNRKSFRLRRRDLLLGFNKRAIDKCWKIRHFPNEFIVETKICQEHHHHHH
T2 sequence (Q61500 other isoform, or with tags, fused parts or gaps): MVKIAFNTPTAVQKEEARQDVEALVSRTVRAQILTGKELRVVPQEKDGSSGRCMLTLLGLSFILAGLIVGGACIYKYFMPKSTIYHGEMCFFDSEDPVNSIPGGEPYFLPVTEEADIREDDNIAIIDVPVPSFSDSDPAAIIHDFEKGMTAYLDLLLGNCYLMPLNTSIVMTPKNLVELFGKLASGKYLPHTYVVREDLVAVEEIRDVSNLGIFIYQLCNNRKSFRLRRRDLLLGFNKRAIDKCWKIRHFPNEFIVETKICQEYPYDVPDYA
T3 sequence (O43736 other isoform, or with tags, fused parts or gaps): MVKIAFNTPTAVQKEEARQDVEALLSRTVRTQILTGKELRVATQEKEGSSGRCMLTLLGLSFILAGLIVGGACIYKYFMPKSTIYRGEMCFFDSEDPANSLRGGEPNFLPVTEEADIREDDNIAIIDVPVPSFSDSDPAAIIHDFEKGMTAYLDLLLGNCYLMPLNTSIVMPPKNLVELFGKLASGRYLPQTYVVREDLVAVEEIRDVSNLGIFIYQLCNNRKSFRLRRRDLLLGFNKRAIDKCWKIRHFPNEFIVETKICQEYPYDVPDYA
T4 sequence (chain, as listed by the source limits assumed): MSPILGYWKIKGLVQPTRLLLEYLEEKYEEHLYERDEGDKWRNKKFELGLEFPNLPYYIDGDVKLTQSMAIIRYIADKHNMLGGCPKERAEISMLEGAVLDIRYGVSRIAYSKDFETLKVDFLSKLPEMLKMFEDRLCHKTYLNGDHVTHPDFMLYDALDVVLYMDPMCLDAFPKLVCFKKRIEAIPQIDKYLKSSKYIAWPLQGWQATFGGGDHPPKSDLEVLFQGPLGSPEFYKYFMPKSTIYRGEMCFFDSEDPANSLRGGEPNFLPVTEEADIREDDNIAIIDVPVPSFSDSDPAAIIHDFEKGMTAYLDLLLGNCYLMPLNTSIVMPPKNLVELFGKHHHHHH
T5 sequence (O43736 other isoform, or with tags, fused parts or gaps limits assumed): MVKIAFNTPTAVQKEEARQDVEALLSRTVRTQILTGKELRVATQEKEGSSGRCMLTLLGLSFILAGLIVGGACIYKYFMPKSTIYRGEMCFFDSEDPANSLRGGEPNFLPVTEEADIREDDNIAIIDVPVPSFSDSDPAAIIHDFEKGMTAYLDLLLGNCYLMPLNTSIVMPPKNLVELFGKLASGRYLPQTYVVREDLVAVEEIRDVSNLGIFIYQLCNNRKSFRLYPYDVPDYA
T6 sequence (O43736 whole entry): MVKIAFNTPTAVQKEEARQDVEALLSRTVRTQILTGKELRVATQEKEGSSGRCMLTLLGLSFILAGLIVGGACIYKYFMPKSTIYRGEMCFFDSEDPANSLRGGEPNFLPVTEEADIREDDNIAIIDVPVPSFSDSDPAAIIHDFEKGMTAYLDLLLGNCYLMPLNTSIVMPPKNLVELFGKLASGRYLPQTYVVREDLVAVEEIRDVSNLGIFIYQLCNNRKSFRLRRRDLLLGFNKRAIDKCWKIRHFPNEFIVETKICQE

B1: anti-ITM2A monoclonal antibody BE13-1 (antibody, mouse IgG1, V domains shown)
VH: EVQLQQSGPELVKPGASVRMSCKASGYTFTDYYMKWVKQSHGKSLEWIGDINPNNGGLSYNQKFKGKATLTVDKSSSTAYMQLASLTSEDSAVYYCAIWSGAYWGQGTLVTVSA
VL: not shown
Consider B1, for which the binding result in test [1], in test [2] and in test [3] was “binds” each time.

B2: anti-ITM2A monoclonal antibody BE5-1 (antibody, mouse IgG1, V domains shown)
VH: QVQLVETGGGLVRPGNSLKLSCVTSGFTFSDYRMHWLRQSPGKRLEWIAVITGKSDNYGASYAESVKGRFTISRDDSKSSVYLQMNRLREEDTATYYCSRRDYWGQGTSVTVSS
VL: DIVMTQAAPSVPVTPGESVSISCRSSKSLLHSNGNTYLYWFLQRPGQSPQLLIYRMSNLAPGVPDRFSGSGSGTAFTLRISRVEAEDVGVYYCMQHLEYPFTFGAGTKLELK
Turning to B2, the binding result in test [1], in test [4], in test [5], in test [2] and in test [6] was “binds” in each case.

B3: anti-ITM2A monoclonal antibody BE6-1 (antibody, mouse IgG1, V domains shown)
VH: EVQLQQSGPELVKPGASVKISCKTSGYTFTEYTMHWVKQSHGKSLEWIGGINPNNGDTSYNQKFKGKATLTVDKSSITAYMELRSLTSEDSAVYYCARGPFAYWGQGTLVTVST
VL: DVVMTQTPLSLPVSLGDQASISCRSSQSLVHSNGNTYFHWYLQKPGQSPKFLIYKVSNRFFGVPDRFSGSGSGTDFTLKISRVEAEDLGVYFCSQTTHFPFTFGSGTKLEIK
On to B3, for which the binding result is on record as “binds” in test [1]; “binds” in test [5]; “no binding” in test [2]; “binds” in test [3]; “binds” in test [6]; “binds” in test [7].
